Results from the nanobody polyreactivity screen of Harvey et al. (2022).

experiment: yeast display, Sf9 membrane polyspecificity reagent, FACS + sequencing; frameworks hold sequencing errors
In short: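 Genes from sorted yeast were amplified by colony PCR, read by MiSeq 2 × 250 sequencing and filtered on CDR length. These cells carried a synthetic nanobody library in Saccharomyces cerevisiae BJ5465 and were sorted by FACS into low and high (top ~1%) gates on anti-HA and streptavidin fluorescence. Polyreactivity is labelled according to the gate of origin.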

Sequence | polyreactivity (PSR sort gate)
QVQLVESGGGLVQAGGSLRLSCAASGRNILPYAMGWYRPSPGKERELVAAISVSGVITYYAESVKGRFTISRDNAKNTVYLQMNSLKPEDTEVYYCASDYTPRRWGRLYDYWGQGTQVTVSS | low polyreactivity
QVQLVESGGGLVQAGGSLRLSCAASGRNILVYAMGWYRQAPGKERELVAAISSGGSTYYADSVKGRFTISRDNAKNTVYLQMNSLKPEDTAVYYCAAQFDVYYSRQPYDYNRSGYWGQGTQVTVSS | low polyreactivity
QVQLVESGGGLVQAGGSLRLSCAASGRNLLYYGMGWYRQAPGKERELVAVISRGGSTYYADSVKGRFTISRDNAKNTVYLQMNSLKPEDTAVYYCAKRIYYGGVATKSLMDYWGQGTQVTVSS | high polyreactivity
QVQLVESGGGLVQAGGSLRLSCAASGRNLRWYAMGWYRPAPGKERELVAAISTRSGSTYYADSVKGRFTISRDNAKNTVYLQMNSLKPEDTAVYYCAAQFWVKGQPQYGYLGQGTQVTVSS | high polyreactivity
QVQLVESGGGLVQAGGSLRLSCAASGRNLYYYAMGWYRQAPGKERELVAAITSGGSTYADSVKGRFTISRDNAKNTVYLQMNSLKPEDTAVYYCNARPVYGSRFYSAVRMEYWGQGTQVTVSS | low polyreactivity
QVQLVESGGGLVQAGGSLRLSCAASGRNSIYYALGWYRQAPGTDRELVAAITTTGSTKYADSVKGRFTISRDNAKKTVDLQMNSLKPEDTADYYCAARFSRWWVRYGYWGQATQVTVSS | high polyreactivity
QVQLVESGGGLVQAGGSLRLSCAASGRNYRYAMGWYRQAPGKEWALVAAISSGGRTNYADSVKGRFTISRDNAKNTVYLQMNSLKPEDTAVYYCAAEAPFYVKGRRYRGYDYWGQGTQVTVSS | high polyreactivity
QVQLVESGGGLVQAGGSLRLSCAASGRSFQDNAMGWYRQAPGKERELVAAISWRGGSTNYADSVKGRFTISRDNAKNTVYLQMNSLKPEDTAVYYCAKGIRRWYGGSDYWGQGTQVNVSS | low polyreactivity
QVQLVESGGGLVQAGGSLRLSCAASGRSFYVYAMGWYRQAPGMERELVATITRGGRTYYADSVKGRFTISRDNAKNTVYLQMNSLKPEDTAVSYCNDEDGSRRYRYEYWGHGTQVTVSS | high polyreactivity
QVQLVESGGGLVQAGGSLRLSCAASGRSFYYNAMGWYRQAPGKERELVAAIRSSGGTTYYADSVKGRFTISRDNAKNTVYLQMNSLKPEDTAVYYCAKDSNRYSYYSPYDSWGQGTQVTVSS | low polyreactivity
QVQLVESGGGLVQAGGSLRLSCAASGRSIYGYALGWYRQATRKERELVAAIHSGGSTYYADSVKGRFTISRDNAKNTVYLQKNSLKPEDTAVYYCAGYTAYRSRAYFYYWGQGTQVTVSS | high polyreactivity
QVQLVESGGGLVQAGGSLRLSCAASGRSLHHYAMGWYSQAPGKERELVAAIRWGGGSTYYADSVKGRFTISRDNAKNTVYLQMNSLNPEDPAVYSCAAEVVAGYDYSQYYYWGQGTQVTVST | low polyreactivity
QVQLVESGGGLVQAGGSLRLSCAASGRSLRGYAMGWYREAPGNEWVFVAAISSRGGSTYYADSVKGRLTLSRDNAKNTVYVQMNSLKPEDSAVYYCAAQWGRWYYGFNYRGQGTQVTVSS | high polyreactivity
QVQLVESGGGLVQAGGSLRLSCAASGRTAMGWYRHAPGKEREVVAAITGSGVSTYADSVKGRFTISRDNAKNTVYLQMNSLKPEDTAVYYCAADLPFVGGDYWGQGTQVYVSS | low polyreactivity
QVQLVESGGGLVQAGGSLRLSCAASGRTCAYNAMGWYRQAPGKERELVAAITDSDGNTYYADSVKGRFTISRDNAKNTVYLQMNSLKPEDTAVYYCAADYIILDHVTRGFGYEYWGQGTQVTVSS | low polyreactivity
QVQLVESGGGLVQAGGSLRLSCAASGRTCGSNVMGWYRQAPGKERELVAAISRSGGSTHYADSVKGRFTISRDKAKNSVYLQMKSLNPEDTAVYYCAARYSGGSAYGYGSLGQGTQVTVSS | high polyreactivity
QVQLVESGGGLVQAGGSLRLSCAASGRTCGYNAMGWYRQAPGKERELVAAISWSGTRSYYADSVKGRFTSSRDNAKNTVYLQMNSLKPEDTAVYYCAKRTLYGRTWSTSDYWGQGTQVTVSS | high polyreactivity
QVQLVESGGGLVQAGGSLRLSCAASGRTCKYYAMGWYRPAPGKEREEVAAINSGGITYYADSVKGRFTISRDNAKNTVYLQMNSLKPEDTAVYYCAKVWKIGVLRYPSYGYSYWGQGTQVTVSS | high polyreactivity
QVQLVESGGGLVQAGGSLRLSCAASGRTCYSYAMGWYRQAPGKVRALVAAITSSGSTNADSVKGRFTISRDNAKNTDYLQMNSLKPEDTAVYYCATRSYILGWRYDYWGQGTQVTVSS | high polyreactivity
QVQLVESGGGLVQAGGSLRLSCAASGRTCYYTMGWYRPAPGKDRELVAAITWSVDSTYYADSVKGRFTISRDNAKNTVYLHMNSLKPEVTAVYYCAVQPPPLNGLYDYWGQGTQVTVSS | low polyreactivity
QVQLVESGGGLVQAGGSLRLSCAASGRTDYRYAMGWYRQAPGKERELVAAISRSGGRTYYADSVKGRFTISRDNAKNTVYLQMNSQKPEDTAVYYCASRGLGSGPVVEGDYWGQGTQVTVSS | high polyreactivity

Sequence | polyreactivity (PSR sort gate)
QVQLVESGGGLVQAGGSLRLSCAASGRTFAAYAMGWYRKAPGKEREFVADITYSGGSTTYADSVKGRFTISRDNAKNTVYLQMNSLKPEDTAVYDCIKLAYTRGWRGFVWYDYWGQGTQVTVSS | low polyreactivity
QVQLVESGGGLVQAGGSLRLSCAASGRTFADHTMGWYRQAPGKERELVARINSGSSTYYADSVKGRFTISRDNAKNTVYLQMNSLKPEDTAVYYCAARGSDYIRWYVGGRYGYWGQGTQVTVSS | low polyreactivity
QVQLVESGGGLVQAGGSLRLSCAASGRTFADYAMGWYRQAPGKERELVAAISWRGGSTYYADSVKGRFTISRDNAKNTVYLQMNSLKPEDTAVYYCNKAYPADYDYWGQGTQVTVSS | low polyreactivity
QVQLVESGGGLVQAGGSLRLSCAASGRTFAFYAMGWYRPAPGKERDLVASISSSGDRTYYADSVKGRFTISRDNAKNTVYLQMNSLKPEDTAVYYCNRVEGGAYGSNFDYWGQATQVTVSS | high polyreactivity
QVQLVESGGGLVQAGGSLRLSCAASGRTFAFYTMGWYIQAPGKERELVAAITRTGSTSYADSVKGRFTISRDNAKNTVYLQMNSLKPEDTAVYFCASVGYPYTLWHQMDYWGQGTQVTVSS | low polyreactivity
QVQLVESGGGLVQAGGSLRLSCAASGRTFAGNAMGWYRPAPGTERELVADITRGGGSTYYADSVKGRFTISRDNAKNTVYLQMNSLKPEDTAVYYCAAATAFYYFISEYDYWGQGTQVTVSS | high polyreactivity
QVQLVESGGGLVQAGGSLRLSCAASGRTFAGNAMGWYRQAPGKERELVAAISQGGGSTYYADSVKGRFTISRDNAKNTVYLQMNSLKPEDTAVYYCAVDFRRYPGFDYWGQGTQVTVSS | low polyreactivity
QVQLVESGGGLVQAGGSLRLSCAASGRTFAGYAMGWYRQAPGKERELVAGISVDDSTTYYADSVKGRFTISRDNAKNTVYLQMNSLKPEDTAVYYCAAEREKTLYYLSRFDYWGQGTQVTVSS | low polyreactivity
QVQLVESGGGLVQAGGSLRLSCAASGRTFAGYAMGWYRQAPGKERELVAGITTSGGITYYADSVKGRFTISRDNAKNTVYLQMNSLKPEDTAVYYCNTGYYGRLRDDYWGQGTQVTVSS | high polyreactivity
QVQLVESGGGLVQAGGSLRLSCAASGRTFAIYVMGWYRQAPGKERELVAAISRGGSTYYADSVKGRFTISRDNAKNTVYLQMNSLKPEDTAVYYFAAGTGTTSRYYYWGQGTQVTVSS | high polyreactivity
QVQLVESGGGLVQAGGSLRLSCAASGRTFAIYVMGWYRQAPGKERELVAAITRVGSTYADSVKGRFTISRDNAKNTVYVQMNSLKPEDTAVYYCAAVSGVRSGPWRYDYWGQGTQVTVSS | high polyreactivity
QVQLVESGGGLVQAGGSLRLSCAASGRTFALNAMGWSRQAPGKERELVAAISWSSGRTYYADSVKGRFTISRDIAKNTVYLQMNSLKPEDTAVYYCAAYAQKRYYWGQGTQVTVSS | high polyreactivity
QVQLVESGGGLVQAGGSLRLSCAASGRTFALNAMGWYRQAPGKERELVADISYSGGSTYYADSVKGRFTISRDNAKNTVYLQMNSLKPEDTAVYYCAADSPWYVAYYYGYRVDYWGQGTQVTVSS | high polyreactivity
QVQLVESGGGLVQAGGSLRLSCAASGRTFALYAMGWYRQATGKERELVAAITWSGGSTYYADSVKGRFTISRDNAKNTVYLQMNSLKPEDTAVYYCAAQWPKSKYGYWGQGTQVTVSS | high polyreactivity
QVQLVESGGGLVQAGGSLRLSCAASGRTFANNVMGWYRQAPGKEREFVAAISRSGGITYYADSVKGRFTISRDNAKNTVYLQMNSLKPEDTAVYYCNAEWPFIYRLYRVQHGNDYWGQGTQVTVSS | low polyreactivity
QVQLVESGGGLVQAGGSLRLSCAASGRTFAPNAMGWYRQAPGKERELVAAISWSGTSTYYADSVKGRFTISRDNAKNTVYLQMNSLKPEDTAVYYCAPDLEGRVGSPWTYDYWGQGTQVTVSS | low polyreactivity
QVQLVESGGGLVQAGGSLRLSCAASGRTFAPYAMGWYRQAPGKERELVAAITYSGGSTYYADSVKGRFTISRDNAKNTVYLQMNSLKPEDTAVYYCAKVDSEYRQVIQQEDDYWGQGTQVTVSS | low polyreactivity
QVQLVESGGGLVQAGGSLRLSCAASGRTFAPYTMGWYRQAPGKERELVAAINFNGGGTYYADSVKGRFTISRDNAKNTVYLQMNSLKPEDTAVYYCYYLYNYWGQGTQVTVSS | low polyreactivity
QVQLVESGGGLVQAGGSLRLSCAASGRTFAQYTMGWYRQAPGKERELVAAISYRGSSTYYADSVKGRFTISRDNAKNTVYLQMNSLKPEDTAVYYCAVVYSIYTGGYDYWGQGTQVTVSS | high polyreactivity
QVQLVESGGGLVQAGGSLRLSCAASGRTFARNALGWYRQAPGKERELVAAITKGGGSTYYADSVKGRFTISRDNAKNTVYLQMNSLKPEDTAVYYCDAYKPSTRRYDYWGQGTQVTVSS | high polyreactivity
